# From article PMC10403280
# Columns and labels:
# [1] = biological target: Z domain of staphylococcal protein A, displayed on yeast (first protein, Z-A); test: on-yeast cleavage-capture assay; details: 60 min after 3C protease cleavage; parent: est. 63; read off a plot
# [2] = biological target: affibody ZpA963, second protein (Z-B) of the yeast-displayed single chain; test: on-yeast cleavage-capture assay; details: 60 min after 3C protease cleavage; parent: est. 63; read off a plot
# affibody Z_(SPA-1) = test: SPR; BIAcore T100; about 100 RU of biotinylated affibody captured on a streptavidin (SA) chip, the partner flowed over in two-fold dilutions; HBS-P+; 1:1 binding model or steady-state affinity model; which partner was captured is not told
# affibody ZpA963 = test: as above
# [3] = biological target: Z domain of staphylococcal protein A, displayed on yeast (first protein, Z-A); test: flow cytometry on cells; on-yeast cleavage-capture assay, test of fluorescently labelled anti-HA antibodies of different valency (Fab, IgG mAb, Fab+streptavidin complex); staining after 3C cleavage as % of uncleaved cells
# [4] = biological target: Z domain of staphylococcal protein A, displayed on yeast (first protein, Z-A); test: flow cytometry on cells; on-yeast cleavage-capture assay: Aga2-cMyc-ZA-linker (3C site)-ZB-HA on S. cerevisiae EBY100, stained with Alexa Fluor 488 anti-cMyc and Alexa Fluor 647 anti-HA antibody, cut with 3C protease (0.4 mg/mL in MACS buffer, 4°C); HA-tag MFI as % of the MFI before cleavage
substance,measurement,setting,value
"affibody ZpA963, second protein (Z-B) of the yeast-displayed single chain I31V",response,[1],30 % max.
"Z domain of staphylococcal protein A, displayed on yeast (first protein, Z-A) L17I",response,[2],66 % max.
Z domain of staphylococcal protein A (domain or fragment),Kd,affibody Z_(SPA-1),2.92 µM
same,Kd,affibody ZpA963,0.01 µM
"affibody ZpA963, second protein (Z-B) of the yeast-displayed single chain (designed binder)",% of the staining of uncleaved cells kept after 3C cleavage (anti-HA Fab+SA complex),[3],69.9%
same,% of the staining of uncleaved cells kept after 3C cleavage (anti-HA IgG mAb),[3],45.8%
same,% of HA-tag fluorescence kept after an hour of 3C protease cleavage,[4],68.7%
"affibody ZpA963, second protein (Z-B) of the yeast-displayed single chain L35I",response,[1],26 % max.
